From US20200241008 come the findings set out here.

In data set [1] the test system is indicator molecule containing the cleavable sequence (GPQGIFGQ) with a terminal biotin group connected via a polyethylene glycol spacer/linker, intact.
The test system of data set [2] is fluorescence resonance energy transfer (FRET) peptide of the commercial MMP-9 activity assay kit.

active MMP-9 (Alere San Diego), sequence (chain, as listed by the source): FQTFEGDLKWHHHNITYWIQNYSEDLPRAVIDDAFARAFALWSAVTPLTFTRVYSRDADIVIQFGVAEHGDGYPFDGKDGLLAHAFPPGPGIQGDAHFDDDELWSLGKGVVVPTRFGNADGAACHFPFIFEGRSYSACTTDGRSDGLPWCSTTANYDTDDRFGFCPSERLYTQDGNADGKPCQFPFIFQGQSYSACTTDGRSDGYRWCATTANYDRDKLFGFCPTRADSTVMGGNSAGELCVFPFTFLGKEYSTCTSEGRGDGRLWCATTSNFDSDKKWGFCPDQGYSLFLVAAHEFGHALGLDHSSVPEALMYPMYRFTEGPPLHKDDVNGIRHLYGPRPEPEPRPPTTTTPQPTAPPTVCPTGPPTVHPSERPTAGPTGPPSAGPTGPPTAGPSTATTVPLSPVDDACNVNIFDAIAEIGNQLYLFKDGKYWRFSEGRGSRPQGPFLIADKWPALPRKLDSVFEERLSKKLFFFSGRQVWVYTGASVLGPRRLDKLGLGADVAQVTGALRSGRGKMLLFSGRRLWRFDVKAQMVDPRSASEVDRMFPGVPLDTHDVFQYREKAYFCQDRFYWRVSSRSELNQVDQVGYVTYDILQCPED
MMP9 (Enzo), sequence (chain, as listed by the source): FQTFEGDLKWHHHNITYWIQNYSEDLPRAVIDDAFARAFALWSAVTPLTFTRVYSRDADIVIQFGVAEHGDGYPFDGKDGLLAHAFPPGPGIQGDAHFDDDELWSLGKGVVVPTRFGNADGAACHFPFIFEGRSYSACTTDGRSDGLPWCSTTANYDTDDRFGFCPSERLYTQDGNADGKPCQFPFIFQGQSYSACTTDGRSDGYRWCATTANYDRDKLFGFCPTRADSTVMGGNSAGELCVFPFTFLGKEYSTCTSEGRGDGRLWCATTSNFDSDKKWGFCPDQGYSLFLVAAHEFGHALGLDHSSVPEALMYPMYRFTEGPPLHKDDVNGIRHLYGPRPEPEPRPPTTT
MMP8 (Enzo), sequence (chain, as listed by the source): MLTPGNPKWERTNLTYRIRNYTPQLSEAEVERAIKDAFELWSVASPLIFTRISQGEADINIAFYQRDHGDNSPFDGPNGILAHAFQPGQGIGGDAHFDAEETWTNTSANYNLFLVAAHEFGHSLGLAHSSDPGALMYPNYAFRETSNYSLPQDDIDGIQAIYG
MMP2 (Enzo), sequence (chain, as listed by the source): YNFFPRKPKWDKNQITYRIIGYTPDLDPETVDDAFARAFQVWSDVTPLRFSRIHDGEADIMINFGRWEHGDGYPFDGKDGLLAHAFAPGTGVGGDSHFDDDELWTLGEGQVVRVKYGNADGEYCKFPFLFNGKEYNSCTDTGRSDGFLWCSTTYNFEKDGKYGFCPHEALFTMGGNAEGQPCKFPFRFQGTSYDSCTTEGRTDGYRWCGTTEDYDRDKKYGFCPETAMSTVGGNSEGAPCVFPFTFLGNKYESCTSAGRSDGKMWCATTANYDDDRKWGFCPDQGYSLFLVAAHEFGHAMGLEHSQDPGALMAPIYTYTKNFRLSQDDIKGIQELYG
MMP10 (Enzo), sequence (chain, as listed by the source): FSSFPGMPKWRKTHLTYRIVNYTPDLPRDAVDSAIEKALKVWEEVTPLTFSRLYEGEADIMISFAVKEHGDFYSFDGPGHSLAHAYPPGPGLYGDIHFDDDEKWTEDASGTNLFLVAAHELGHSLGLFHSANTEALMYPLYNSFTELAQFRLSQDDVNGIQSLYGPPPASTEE
MMP3 (Enzo), sequence (chain, as listed by the source): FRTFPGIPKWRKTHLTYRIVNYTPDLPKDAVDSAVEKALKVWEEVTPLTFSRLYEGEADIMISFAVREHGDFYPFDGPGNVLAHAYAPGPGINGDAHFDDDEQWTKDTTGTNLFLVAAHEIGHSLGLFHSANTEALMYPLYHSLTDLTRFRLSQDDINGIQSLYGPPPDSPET

As for MMP2 (Enzo), the reader value at 0.5 µg/ml MMP (lateral flow) in data set [1] came out at 1610 reader units.
Still for that read-out and setting: the value for MMP3 (Enzo) was 336 reader units; that for MMP8 (Enzo) was 1140 reader units; that for MMP9 (Enzo) was 3840 reader units.
Same read-out and setting: the value for MMP10 (Enzo) was 444 reader units.
With active MMP-9 (Alere San Diego), in data set [1], the OD405 at 0.39 ng/ml MMP9 (ELISA, streptavidin plate, CF1522-AP) turned out to be 0.14 OD405; the OD405 at 0.78 ng/ml MMP9 (ELISA, streptavidin plate, CF1522-AP) stood at 0.14 OD405; the OD405 at 1.56 ng/ml MMP9 (ELISA, streptavidin plate, CF1522-AP) came to 0.14 OD405; the OD405 at 3.13 ng/ml MMP9 (ELISA, streptavidin plate, CF1522-AP) came to 0.13 OD405. In data set [1], this substance yielded an OD405 at 6.25 ng/ml MMP9 (ELISA, streptavidin plate, CF1522-AP) of 0.17 OD405; an OD405 at 12.50 ng/ml MMP9 (ELISA, streptavidin plate, CF1522-AP) of 0.18 OD405; an OD405 at 25.00 ng/ml MMP9 (ELISA, streptavidin plate, CF1522-AP) of 0.27 OD405; an OD405 at 50.00 ng/ml MMP9 (ELISA, streptavidin plate, CF1522-AP) of 0.5 OD405. In data set [1], this substance registered a Ultimate ELTABA reader value at 3.90625 ng/ml MMP9 (lateral flow) of 413 reader units, a Ultimate ELTABA reader value at 7.8125 ng/ml MMP9 (lateral flow) of 524 reader units, a Ultimate ELTABA reader value at 15.625 ng/ml MMP9 (lateral flow) of 882 reader units and a Ultimate ELTABA reader value at 31.25 ng/ml MMP9 (lateral flow) of 2030 reader units. Also, in data set [1], the Ultimate ELTABA reader value at 62.5 ng/ml MMP9 (lateral flow) was found to be 3830 reader units; the Ultimate ELTABA reader value at 125 ng/ml MMP9 (lateral flow) came out at 5580 reader units; the Ultimate ELTABA reader value at 250 ng/ml MMP9 (lateral flow) is 6220 reader units; the “detectable limit for MMP-9 (lateral flow, sample volume 75 µl)” value is on record as “approximately 4 ng/ml”. In data set [1], this substance showed a reader value at 0.9765625 ng/ml MMP9 (lateral flow) of 338 reader units, a reader value at 0.98 ng/ml MMP9 (lateral flow) of 338 reader units, a reader value at 1.95 ng/ml MMP9 (lateral flow) of 343 reader units and a reader value at 1.953125 ng/ml MMP9 (lateral flow) of 343 reader units. In data set [1], this substance yielded a reader value at 3.90625 ng/ml MMP9 (lateral flow) of 413 reader units, a reader value at 3.91 ng/ml MMP9 (lateral flow) of 413 reader units, a reader value at 7.81 ng/ml MMP9 (lateral flow) of 524 reader units and a reader value at 7.8125 ng/ml MMP9 (lateral flow) of 524 reader units. In data set [1], this substance had a reader value at 15.625 ng/ml MMP9 (lateral flow) of 882 reader units, a reader value at 15.63 ng/ml MMP9 (lateral flow) of 882 reader units, a reader value at 31.25 ng/ml MMP9 (lateral flow) of 2030 reader units and a reader value at 62.5 ng/ml MMP9 (lateral flow) of 3830 reader units. Moreover, in data set [1], the reader value at 62.50 ng/ml MMP9 (lateral flow) turned out to be 3830 reader units, the reader value at 125 ng/ml MMP9 (lateral flow) was 5580 reader units, the reader value at 250 ng/ml MMP9 (lateral flow) came out at 6220 reader units and the reader value at 500 ng/ml MMP9 (lateral flow) was determined as 6730 reader units. Further, in data set [1], the reader value at 1000 ng/ml MMP9 (lateral flow) worked out at 6770 reader units; the “sensitivity of the MMP9 standard curves (ELISA and lateral flow)” value is “sensitivity down to 4 ng/ml”. In data set [2], the Reference assay read-out at 0 ng/ml MMP9 (blank) was 3820, the Reference assay read-out at 3.90625 ng/ml MMP9 was found to be 7600, the Reference assay read-out at 7.8125 ng/ml MMP9 turned out to be 13100 and the Reference assay read-out at 15.625 ng/ml MMP9 was determined as 31300. Moreover, in data set [2], the Reference assay read-out at 31.25 ng/ml MMP9 amounted to 62300, the Reference assay read-out at 62.5 ng/ml MMP9 was found to be 113000, the Reference assay read-out at 125 ng/ml MMP9 worked out at 163000 and the Reference assay read-out at 250 ng/ml MMP9 came out at 204000.
